Results on 19 molecules are retold here after article PMC3037356, “BosR (BB0647) Controls the RpoN-RpoS Regulatory Pathway and Virulence Expression in Borrelia burgdorferi by a Novel DNA-Binding Mechanism” (PLoS Pathogens, 2011).

The term Kd denotes the free concentration of one partner at which half of the binding sites on the other are occupied at equilibrium, for simple one-to-one binding. In general, stoichiometry N refers to the number of molecules, sites or subunits per partner or assembly.

The chains are these.
B1: ZM132 (BS1) (dsDNA)
DNA 1: GGCCTTGCCGATTTAATTTACAATCAATTACAAAAAAGTAAATAATTCAAAAAATACTCC
DNA 2: GGAGTATTTTTTGAATTATTTACTTTTTTGTAATTGATTGTAAATTAAATCGGCAAGGCC
B2: ZM127 (BS2) (dsDNA)
DNA 1: TTTAGTTTAAAACCATTTTTAAATTAAATTGGCACAGTTTTTGCATGAAAATTAAGTAGT
DNA 2: ACTACTTAATTTTCATGCAAAAACTGTGCCAATTTAATTTAAAAATGGTTTTAAACTAAA
B3: ZM147 (dsDNA)
DNA 1: AAAAAGCTGAGATCTGTCGACATCCATGGTGGCACAGTTTTTGCATGAAAATTAAGTAGT
DNA 2: ACTACTTAATTTTCATGCAAAAACTGTGCCACCATGGATGTCGACAGATCTCAGCTTTTT
B4: ZM213 (DR1 mutant) (dsDNA)
DNA 1: ATTTTATATCCTAGGCCGTTTAAAACCATTTTTAAATTAAATTGGCACAGTTTTTGCATG
DNA 2: CATGCAAAAACTGTGCCAATTTAATTTAAAAATGGTTTTAAACGGCCTAGGATATAAAAT
B5: ZM223 (DR1 and DR2 mutant) (dsDNA)
DNA 1: ATTTTATATCCTAGGCCGTTTAAAACCATTTTTAGGCCAAATTGGCACAGTTTTTGCATG
DNA 2: CATGCAAAAACTGTGCCAATTTGGCCTAAAAATGGTTTTAAACGGCCTAGGATATAAAAT
B6: ZM160 (5' of BS3) (dsDNA)
DNA 1: TCACAATATTCAAGAAAGGGGAGAAAATATAATAACTATGAACATATTTAGTAATGAGGA
DNA 2: TCCTCATTACTAAATATGTTCATAGTTATTATATTTTCTCCCCTTTCTTGAATATTGTGA
B7: ZM219 (bosR upstream) (dsDNA)
DNA 1: AAAAAAATATGAAAATAAATAAATAATAAGTAGTAAAATATTAATAACTGGGTATAAAAT
DNA 2: ATTTTATACCCAGTTATTAATATTTTACTACTTATTATTTATTTATTTTCATATTTTTTT
B8: ZM220 (ZM219 DR mutant) (dsDNA)
DNA 1: AAAAAAATATGAAAATGGCCAAATAATAAGTAGTAAAATATTAATAACTGGGTATAAAAT
DNA 2: ATTTTATACCCAGTTATTAATATTTTACTACTTATTATTTGGCCATTTTCATATTTTTTT
B9: ZM218 (ZM217 DR mutant) (dsDNA)
DNA 1: AGTGTAAAAAGGCCAATCAATTTTTTCATTAAATATCCTTTTTATTTATTATGGTATTAA
DNA 2: TTAATACCATAATAAATAAAAAGGATATTTAATGAAAAAATTGATTGGCCTTTTTACACT
B10: ZM216 (ZM215 DR mutant) (dsDNA)
DNA 1: TGGTTTAGATGGCCTTTTTTTCTCAATTCAGCAATTTCTGAATATAGAATTTTCATATCT
DNA 2: AGATATGAAAATTCTATATTCAGAAATTGCTGAATTGAGAAAAAAAGGCCATCTAAACCA
B11: ZM156 (BS1 3' DR) (dsDNA)
DNA 1: GCTGAGATCTGTCGAATCAATTACAAAAAAGTAAATAATTCAAAAAATACTCCCCCTAAA
DNA 2: TTTAGGGGGAGTATTTTTTGAATTATTTACTTTTTTGTAATTGATTCGACAGATCTCAGC
B12: ZM211 (ZM156 DR mutant) (dsDNA)
DNA 1: GCTGAGATCTGTCGAATCAATTACAAAAAAGTAGGCCATTCAAAAAATACTCCCCCTAAA
DNA 2: TTTAGGGGGAGTATTTTTTGAATGGCCTACTTTTTTGTAATTGATTCGACAGATCTCAGC
B13: ZM126 (dsDNA)
DNA 1: TTGCATGGAAATTAAGTAGTAAAAACTTAATCACAATATTCAAGAAAGGGGAGAAAATAT
DNA 2: ATATTTTCTCCCCTTTCTTGAATATTGTGATTAAGTTTTTACTACTTAATTTCCATGCAA
B14: ZM155 (BS1 5' DR) (dsDNA)
DNA 1: CTCAAAGCTTTGGCCTTGCCGATTTAATTTACAATCAATTACAAAGCTGAGATCTGTCGA
DNA 2: TCGACAGATCTCAGCTTTGTAATTGATTGTAAATTAAATCGGCAAGGCCAAAGCTTTGAG
B15: ZM210 (ZM155 DR mutant) (dsDNA)
DNA 1: CTCAAAGCTTTGGCCTTGCCGATTTGGCCTACAATCAATTACAAAGCTGAGATCTGTCGA
DNA 2: TCGACAGATCTCAGCTTTGTAATTGATTGTAGGCCAAATCGGCAAGGCCAAAGCTTTGAG
B16: ZM149 (dsDNA)
DNA 1: TTTAGTTTAAAACCATTTTTAAATTAAATTGGCACAGTTTTTGCATTTTAACAGGCAAAA
DNA 2: TTTTGCCTGTTAAAATGCAAAAACTGTGCCAATTTAATTTAAAAATGGTTTTAAACTAAA
B17: ZM166 (-24/-12 and DR mutant) (dsDNA)
DNA 1: TTTAGTTTAAAACCATTTTTAGGCCAAATTTTCACAGTTTTTGAATTCCAACAGGCAAAA
DNA 2: TTTTGCCTGTTGGAATTCAAAAACTGTGAAAATTTGGCCTAAAAATGGTTTTAAACTAAA
B18: Recombinant BosR (BB0647) (natural protein)
chain: MNDNIIDVHSALEKVGITNDPVLLKNLTSELGMKASHSRNRIILYIASNPKEYFTAKEVYNKLIKEIPSLSKATVYNTLNILKERNILKDIKTTDQKETKFYLSLASTIAHFKCNKCNQVHPIQLDDIKDILKDKLGENWETKSIEIIYSGHCNNCYKKDTHNNNNVPDENKEITL
notes: BosR (BB0647), Fur/PerR homologue of Borrelia burgdorferi; bosR amplified with primers ZM69F and ZM69R and cloned into pET SUMO (pOY73); apparent mass ~18.7 kDa, as for native BosR; The protein contained 1.4 mol of zinc per mol of protein; also called rBosR; purified BosR; source: E. coli BL21-DE3, purified (Ni-NTA spin column, SUMO protease cleavage, Superdex 200); not shown: His6, N-terminal, …
B19: ZM157 (-24/-12 mutant) (dsDNA)
DNA 1: TTTAGTTTAAAACCATTTTTAAATTAAATTTTCACAGTTTTTGAATTCCAACAGGCAAAA
DNA 2: TTTTGCCTGTTGGAATTCAAAAACTGTGAAAATTTAATTTAAAAATGGTTTTAAACTAAA

The target of the first series is T1, BosR (rBosR) (UniProt O51592 1-176). The experiment in a line: EMSA; 20 mM Hepes pH 7.5, 50 mM KCl, 1 mM MgCl2, 1 mM DTT, 5% glycerol, 100 ug/ml BSA, 50 ug/ml poly[d(A-T)], 30 fmol probe in 20 ul, 37 C 30 min. As to conditions: protein: recombinant; tags: none (His6-SUMO tag removed by SUMO protease); chain copies: 2; label: digoxigenin 3' end (terminal transferase); blunt. For orientation: Mobility shift assays separate free from complexed probe on a gel.
As to B1, the dissociation constant Kd stood at 210 nM.

Take B2: the Kd turned out to be 36.6 nM.

The series is the same for the next values; noted with them: protein: recombinant; tags: none (His6-SUMO tag removed by SUMO protease); chain copies: 2; label: digoxigenin 3' end; blunt.
As for B3, the binding result is on record as “no binding”.

Consider B4, for which the binding result is “binds”.

For the molecule B5, the binding result was “no binding”.

As to B6, the binding result was “no binding”.

With B7, the binding result was “binds”.

Turning to B8, the binding result is given as “no binding”.

B9: the binding result is reported as “no binding”.

Regarding B10, the binding result was “no binding”.

In the case of B11, the binding result is on record as “binds”.

On to B12, for which the binding result is recorded as “no binding”.

In the case of B13, the binding result is “no binding”.

Consider B14, for which the binding result is “binds”.

Regarding B15, the binding result is “no binding”.

Take B16: the binding result is recorded as “binds”.

In the case of B17, the binding result is recorded as “no binding”.

The next series deals with the molecule itself. The experiment in a line: SEC; purified BosR on a Superdex 200 column, calibrated with aldolase 158 kDa, ovalbumin 43 kDa and ribonuclease A 13.7 kDa; buffer A: 20 mM Tris, 20 mM NaCl, 100 mM L-arginine, pH 7.5.
Conditions: not given
On the technique in general: Size exclusion chromatography separates by hydrodynamic size, large species first.
As to B18, the “stoichiometry N” value is 2.

Another series concerns the target T1, BosR (rBosR). The experiment in a line: EMSA; binding not altered; 20 mM Hepes pH 7.5, 50 mM KCl, 1 mM MgCl2, 1 mM DTT, 5% glycerol, 100 ug/ml BSA, 50 ug/ml poly[d(A-T)], 30 fmol probe in 20 ul, 37 C 30 min. As to conditions: protein: recombinant; tags: none (His6-SUMO tag removed by SUMO protease); chain copies: 2; label: digoxigenin 3' end; blunt.
For B19, the binding result was “binds”.
